# In the Immune Epitope Database (IEDB):
# Experiments:
# [1] = molecular target: HLA-A*02:06; test: IEDB peptide-MHC binding, purified MHC/competitive/radioactivity; filed as Kd, often an IC50 or EC50 that approximates it; ≥ and ≤ were set here for values at or beyond the usual limits of such assays
# [2] = molecular target: HLA-A*02:03; test: as above
# [3] = molecular target: HLA-A*02:01; test: as above
# [4] = molecular target: HLA-A*02:17; test: as above
# [5] = molecular target: HLA-B*08:01; test: as above
# [6] = molecular target: HLA-B*15:17; test: IEDB peptide-MHC binding, purified MHC/competitive/fluorescence; filed as Kd, often an IC50 or EC50 that approximates it; ≥ and ≤ were set here for values at or beyond the usual limits of such assays
# [7] = molecular target: HLA-A*02:16; test: as above
# [8] = molecular target: HLA-A*26:01; test: as above
# [9] = molecular target: HLA-B*18:01; test: as above
# [10] = molecular target: HLA-B*27:03; test: as above
# [11] = molecular target: HLA-A*02:03; test: as above
# [12] = molecular target: HLA-A*02:11; test: as above
# [13] = molecular target: HLA-A*02:01; test: as above
# [14] = molecular target: HLA-A*03:01; test: as above
# [15] = molecular target: HLA-A*24:03; test: as above
# [16] = molecular target: HLA-B*57:01; test: as above
# [17] = molecular target: HLA-A*69:01; test: as above
# [18] = molecular target: HLA-B*46:01; test: as above
# [19] = molecular target: HLA-B*51:01; test: as above
# [20] = molecular target: HLA-B*15:01; test: as above
# [21] = molecular target: HLA-A*02:12; test: as above
# [22] = molecular target: HLA-A*29:02; test: as above
# [23] = molecular target: HLA-B*39:01; test: as above
# [24] = molecular target: HLA-A*02:19; test: as above
# [25] = molecular target: HLA-B*51:01; test: IEDB peptide-MHC binding, purified MHC/competitive/radioactivity; filed as Kd, often an IC50 or EC50 that approximates it; ≥ and ≤ were set here for values at or beyond the usual limits of such assays; settings: source organism: Dengue virus 2 Jamaica/1409/1983
# [26] = molecular target: HLA-A*68:02; test: IEDB peptide-MHC binding, purified MHC/competitive/fluorescence; filed as Kd, often an IC50 or EC50 that approximates it; ≥ and ≤ were set here for values at or beyond the usual limits of such assays
# [27] = molecular target: HLA-B*58:01; test: IEDB peptide-MHC binding, purified MHC/competitive/radioactivity; filed as Kd, often an IC50 or EC50 that approximates it; ≥ and ≤ were set here for values at or beyond the usual limits of such assays
# [28] = molecular target: HLA-B*35:01; test: as above
# [29] = molecular target: HLA-B*53:01; test: as above
# [30] = molecular target: HLA-B*51:01; test: IEDB peptide-MHC binding, purified MHC/direct/fluorescence; filed as Kd, often an IC50 or EC50 that approximates it; ≥ and ≤ were set here for values at or beyond the usual limits of such assays
# [31] = molecular target: HLA-B*07:02; test: as above
# [32] = molecular target: HLA-B*15:01; test: as above
# [33] = molecular target: HLA-A*68:02; test: IEDB peptide-MHC binding, purified MHC/competitive/radioactivity; filed as Kd, often an IC50 or EC50 that approximates it; ≥ and ≤ were set here for values at or beyond the usual limits of such assays; settings: source organism: Dengue virus 3 Singapore/8120/1995
# [34] = molecular target: HLA-A*32:01; test: as above
# [35] = source organism: Dengue virus 2 Jamaica/1409/1983
# [36] = source organism: Dengue virus 4 Philippines/H241/1956
# [37] = source organism: Cryptosporidium parvum Iowa II
# [38] = source organism: Escherichia coli F11
# [39] = source organism: Dengue virus 3 Martinique/1243/1999
# [40] = source organism: West Nile virus
# [41] = source organism: Burkholderia mallei
# [42] = source organism: Vibrio cholerae 2740-80
# [43] = source organism: Vibrio cholerae
# [44] = source organism: Dengue virus 1 Brazil/97-11/1997
# [45] = source organism: Dengue virus 1 Singapore/S275/1990
# [46] = source organism: Dengue virus 3 Singapore/8120/1995
# [47] = source organism: Dengue virus 3 China/80-2/1980
# [48] = source organism: Dengue virus 1 Nauru/West Pac/1974
# [49] = source organism: Brucella suis 1330
# [50] = source organism: Vibrio vulnificus YJ016
sequence,measurement,setting,value
ALIFILLTAV,Kd,[1]; [35],0.0568 µM
same,Kd,[2]; [35],0.0132 µM
same,Kd,[3]; [35],0.000498 µM
same,Kd,[4]; [35],≥ 39.4 µM
ALWDVPSPA,Kd,[2]; [36],0.0168 µM
same,Kd,[3]; [36],0.00272 µM
same,Kd,[4]; [36],0.885 µM
CLWPKTHTL,Kd,[5]; [36],0.00574 µM
same,Kd,[3]; [36],0.0138 µM
same,Kd,[4]; [36],0.251 µM
DLAQDPMLI,Kd,[6]; [37],≥ 20 µM
same,Kd,[7]; [37],0.397 µM
same,Kd,[8]; [37],≥ 20 µM
same,Kd,[9]; [37],≥ 20 µM
same,Kd,[10]; [37],≥ 20 µM
same,Kd,[11]; [37],≥ 20 µM
same,Kd,[12]; [37],≥ 20 µM
same,Kd,[13]; [37],≥ 20 µM
same,Kd,[14]; [37],≥ 20 µM
same,Kd,[15]; [37],≥ 20 µM
same,Kd,[16]; [37],≥ 20 µM
same,Kd,[17]; [37],≥ 20 µM
same,Kd,[18]; [37],≥ 20 µM
same,Kd,[19]; [37],≥ 20 µM
same,Kd,[20]; [37],≥ 20 µM
same,Kd,[21]; [37],≥ 20 µM
same,Kd,[22]; [37],≥ 20 µM
same,Kd,[23]; [37],≥ 20 µM
same,Kd,[24]; [37],≥ 20 µM
FLFLMSGKGI,Kd,[2]; [35],0.0115 µM
same,Kd,[3]; [35],0.0396 µM
same,Kd,[25],5.58 µM
same,Kd,[4]; [35],1.32 µM
GSGDDTWLI,Kd,[6]; [38],≥ 20 µM
same,Kd,[7]; [38],≥ 20 µM
same,Kd,[8]; [38],≥ 20 µM
same,Kd,[9]; [38],≥ 20 µM
same,Kd,[10]; [38],≥ 20 µM
same,Kd,[11]; [38],≥ 20 µM
same,Kd,[12]; [38],≥ 20 µM
same,Kd,[13]; [38],≥ 20 µM
same,Kd,[14]; [38],≥ 20 µM
same,Kd,[15]; [38],≥ 20 µM
same,Kd,[16]; [38],≥ 20 µM
same,Kd,[17]; [38],≥ 20 µM
same,Kd,[18]; [38],≥ 20 µM
same,Kd,[19]; [38],≥ 20 µM
same,Kd,[20]; [38],≥ 20 µM
same,Kd,[21]; [38],1.27 µM
same,Kd,[22]; [38],≥ 20 µM
same,Kd,[23]; [38],≥ 20 µM
same,Kd,[26]; [38],≥ 20 µM
same,Kd,[24]; [38],≥ 20 µM
IASAIVLEF,Kd,[27]; [39],0.00288 µM
same,Kd,[28]; [39],0.00889 µM
same,Kd,[29]; [39],0.00765 µM
IPTAAGKNL,Kd,[30]; [40],≥ 20 µM
KLAQVRRAM,Kd,[31]; [41],0.006 µM
same,Kd,[30]; [41],≥ 20 µM
same,Kd,[32]; source organism: Burkholderia mallei ATCC 23344,0.027 µM
LAVFPAMFW,Kd,[7]; [42],≥ 20 µM
same,Kd,[8]; [42],≥ 20 µM
same,Kd,[9]; [42],≥ 20 µM
same,Kd,[10]; [42],≥ 20 µM
same,Kd,[11]; [42],≥ 20 µM
same,Kd,[12]; [42],≥ 20 µM
same,Kd,[13]; [42],≥ 20 µM
same,Kd,[14]; [42],≥ 20 µM
same,Kd,[16]; [42],0.0379 µM
same,Kd,[17]; [42],≥ 20 µM
same,Kd,[18]; [42],≥ 20 µM
same,Kd,[20]; [42],≥ 20 µM
same,Kd,[21]; [42],≥ 20 µM
same,Kd,[23]; [42],≥ 20 µM
same,Kd,[26]; [42],≥ 20 µM
same,Kd,[24]; [42],≥ 20 µM
LLRQHWLSL,Kd,[31]; [43],0.013 µM
same,Kd,[30]; [43],≥ 20 µM
same,Kd,[32]; source organism: Vibrio cholerae O395,0.049 µM
LMLLALIAV,Kd,[1]; [44],0.00808 µM
same,Kd,[3]; [45],0.0233 µM
same,Kd,[4]; [45],0.553 µM
MALKLITQF,Kd,[27]; [39],0.00216 µM
same,Kd,[28]; [39],0.00125 µM
same,Kd,[29]; [39],0.0224 µM
MIAGVLFTFV,Kd,[1]; [46],0.00244 µM
same,Kd,[2]; [46],0.00185 µM
same,Kd,[3]; [47],0.0107 µM
same,Kd,[4]; [47],0.423 µM
same,Kd,[33],0.00175 µM
MLDVDLHPA,Kd,[1]; [48],0.018 µM
same,Kd,[3]; [48],0.0752 µM
same,Kd,[4]; [48],19.8 µM
NPITLTAAL,Kd,[30]; source organism: dengue virus type 2,≥ 20 µM
same,Kd,[5]; [35],0.0696 µM
same,Kd,[28]; [35],0.0252 µM
same,Kd,[29]; [35],0.377 µM
PASAAQRRGR,Kd,[27]; [36],15.4 µM
QIMEVTARW,Kd,[34]; [45],0.0563 µM
same,Kd,[27]; [45],0.0186 µM
QLWTALISL,Kd,[3]; [39],0.00145 µM
same,Kd,[4]; [39],0.234 µM
RTVFFVLMM,Kd,[34]; [36],≥ 51.3 µM
same,Kd,[27]; [36],0.635 µM
RVIDSRKSV,Kd,[30]; [40],1.6 µM
TEWPQLKVA,Kd,[6]; [49],≥ 20 µM
same,Kd,[7]; [49],≥ 20 µM
same,Kd,[8]; [49],≥ 20 µM
same,Kd,[9]; [49],0.0336 µM
same,Kd,[10]; [49],≥ 20 µM
same,Kd,[11]; [49],≥ 20 µM
same,Kd,[12]; [49],≥ 20 µM
same,Kd,[13]; [49],≥ 20 µM
same,Kd,[14]; [49],≥ 20 µM
same,Kd,[16]; [49],≥ 20 µM
same,Kd,[17]; [49],≥ 20 µM
same,Kd,[18]; [49],≥ 20 µM
same,Kd,[19]; [49],≥ 20 µM
same,Kd,[20]; [49],≥ 20 µM
same,Kd,[21]; [49],≥ 20 µM
same,Kd,[22]; [49],≥ 20 µM
same,Kd,[23]; [49],≥ 20 µM
same,Kd,[26]; [49],≥ 20 µM
same,Kd,[24]; [49],≥ 20 µM
VLMLVAHYA,Kd,[2]; [44],0.00273 µM
same,Kd,[3]; [45],0.00667 µM
same,Kd,[4]; [45],13.2 µM
VTFGARASF,Kd,[7]; [50],≥ 20 µM
same,Kd,[8]; [50],≥ 20 µM
same,Kd,[10]; [50],≥ 20 µM
same,Kd,[11]; [50],≥ 20 µM
same,Kd,[12]; [50],≥ 20 µM
same,Kd,[13]; [50],≥ 20 µM
same,Kd,[14]; [50],≥ 20 µM
same,Kd,[16]; [50],0.0974 µM
same,Kd,[17]; [50],≥ 20 µM
same,Kd,[21]; [50],≥ 20 µM
same,Kd,[23]; [50],≥ 20 µM
same,Kd,[24]; [50],≥ 20 µM
YLDVDLHPA,Kd,[1]; [39],0.0372 µM
same,Kd,[3]; [47],0.00442 µM
same,Kd,[4]; [47],1.89 µM
